# Test results reported in the DeepSol protein solubility set.
# Assay: soluble on expression in E. coli; label from the status in PepcDB or PDB records
row,Sequence,soluble on expression in E. coli
1,MTTPLAQRIKSLIRLNGPLSVTDFFSLCLADPEHGYYKSREPFGRSGDFITAPEVSQLFGEMLGVFVVHAWQRHGAPAQTQLVEIGPGRGTMMSDMLRVIRRIAPPLYETMRVHLVETSPRLSAIQKETLTAHADRLTWHDSFDDVPEGFLLLVANELFDAIPIRQFVRTPQGFRERVVSLDANGELVFSTGLAGIDPTLLPPQPERQQLGTVFEVSPAREAVMTAICQRLSVHGGTALAIDYGHLVAGYGDTLQAMRNHAFDPPLAHPGEADLTSHVDFESLVKTAQATGVHVNGALRQGDFLHGLGLKERASALAAKATPDQTLEIAEAVNRLAGEGAGKMGELFKVIAVSSPALHLLPFRAVDLEHHHHHH,soluble
2,MTTQTTPAHIAMFSIAAHGHVNPSLEVIRELVARGHRVTYAIPPVFADKVAATGPRPVLYHSTLPGPDADPEAWGSTLLDNVEPFLNDAIQALPQLADAYADDIPDLVLHDITSYPARVLARRWGVPAVSLSPNLVAWKGYEEEVAEPMWREPRQTERGRAYYARFEAWLKENGITEHPDTFASHPPRSLVLIPKALQPHADRVDEDVYTFVGACQGDRAEEGGWQRPAGAEKVVLVSLGSAFTKQPAFYRECVRAFGNLPGWHLVLQIGRKVTPAELGELPDNVEVHDWVPQLAILRQADLFVTHAGAGGSQEGLATATPMIAVPQAVDQFGNADMLQGLGVARKLATEEATADLLRETALALVDDPEVARRLRRIQAEMAQEGGTRRAADLIEAELPARHERQEPVGDRPNVGDRPAGVRSDRQRSAL,soluble
3,MTVEQNEFLSSVQLQILAEQAIKQYPNEYQGSVKLLCQSENATFLVTTAQAKYALRIHRPNYHHLQDIESELAWLDALNQSGIEVPLAIADQDGQRVITLKLAEGISRYAVLFNWVNGSMPTTDVDPTAFQQLGQITAALHQHSKSWKRPEQFNRIVWNHDTMVGAQGHWGNWKHAPHLDQADHAVVEEAIARISTELCQYGAGEDRYGLIHADLRLTNLLLQDQQIGVIDFDDCGMSWFMHDLAAAISFNEHLDAAPQWVEHWLTGYEKTGHVQNHDYVMIPTFIMQRRIQMMAWNGSHAHTEMALSLGDQWSNETVRLCKKYLNGEMPVGRSNA,not soluble
4,MTVGVGGSTPAQALERLRNMMDGAQPIGLASYRARIAAAQAWMGEHGIAAAYLHAGSNLRYFSGVQWHPSERLVGALLPAEGALEYLAPAFEEGTVRDFQVVDGAIHTWEEHQDPYRLLLDRLEALGVGERSTVALCPSLPFGMFERLRQQAPGRNFVSAAPLIDQGRMRKSAEELALMQRAKDMTLEVQKAAASILREGISTTEVAEFIHQAHRKVGAPGSTFCIVLFGAASAFPHGVKHAQVLKDGDMVLIDTGCQVHGYQSDITRSYVFGTPSARQREFWGMERDAQLAAFEAARLGQPCEAVDAAARRSLEANGLGPDYRLPGLPHRTGHGIGMDVHEGPYLVRGDRTPLDVGMCFSNEPMICVPGEFGIRLEDHFYMTKEGPRWFT,not soluble
5,MTVLIAGAGIAGLSLGLTLHQIGVPFRIYEATAVLRPMGVGINLQPNAVRELLDLGLEAELDRIGVRTRQLGFYSKLGKTIWEEPRGIWAGYAWPQYSVHRGALQMMLYEALIARAGADCVVTGARAAGFETGPESATLILSDGRRVEGRLLIAADGIHSALRAQMYPNEGEPIWNGRVLWRATTRAPAYFGGGAMAMIGHDDLRLVSYPISEPDGDGMVEMNWIAEKRFPLDAAWKKEDWNRAADIGDFLPDFADWRFDWIDVPALIQGAEVVYEYPMVDRDPLPRWTGGSVTLMGDAAHPTYPVGSNGASQAILDARIIGARLLEHGITPRALAAYEAEVRPVTTAVGQANRAGGGPDGVLQRVEDLCGGDFDDIDTVIPHAELAAHAARYKSIAGFSIEELNARPRTIAEGARIPALEHHHHHH,not soluble
6,MTVRSRFFTEAEGKAVGVENAAAKGDVLLVCEHASATIPQKYGTLGLSADVLSSHAAWDPGALAVARLLSEKFHATLVYQRFSRLVYDCNRPPESPSAMPVKSEIYDIPGNFDLDEAERFARTSALYVPFHDRVSEIIAERQAAGRKVVVVTIHSFTPVYHGRFREVEIGILHDNDSRLADAMLAGAEGASLTVRRNDPYGPEDGVTHTLRLHALPDGLLNVMIEIRNDLIANEGEQAAIAGFLHELMGKALSSIEE,soluble
7,MTVTLTCRFKLELSKDQKQQFLDIATAYTNAVNYVLEQNLKDKSTNVKKLHRLYYKTIREDFDLPAQMAINVNRDVSAMYKTLWAQFKELKRRKPDSKAVKKFWDKPPKRKSLIVKYTYNRTASFKKINGEWHASLSTLQGRIKWIPMKGWSKHFEYLKSCKIGDPILTYDKSSKTFFLLVPVTLEVQEHQPKEIVGVDVGERHIAAVASTKGTRYLIDLPEEFKQRKQHYQRLRSELMSKGTRSAKRKLARISRREKRFTENVLHIIAKKLTTSHPGARFVLEDLTQIRANRITYRGKDKEARRQSEQWPFASLQQKIEYKAKLYYGVQSEKVDPSYTSQTCPRCGHVSKENRPDHGERFVCQSCGYEEHADIVGAINIALRVLAKDQQVNLEKLLGAVVSRPDAPRLG,not soluble
8,MTVTLTCRFKLELSKDQKQQFLDIATAYTNAVNYVLEQNLKDKSTNVKKLHRLYYKTIREDFDLPAQMAINVNRDVSAMYKTLWAQFKELKRRKPDSKAVKKFWDKPPKRKSLIVKYTYNRTASFKKINGEWHASLSTLQGRIKWIPMKGWSKHFEYLKSCKIGDPILTYDKSSKTFFLLVPVTLEVQEHQPKEIVGVDVGERHIAAVASTKGTRYLIDLPEEFKQRKQHYQRLRSELMSKGTRSAKRKLARISRREKRFTENVLHIIAKKLTTSHPGARFVLEDLTQIRANRITYRGKDKEARRQSEQWPFASLQQKIEYKAKLYYGVQSEKVDPSYTSQTCPRCGHVSKENRPDHGERFVCQSCGYEEHADIVGAINIALRVLAKDQQVNLEKLLGAVVSRPDAPRLGLEHHHHHH,soluble
9,MTWNPLALATALQTVPEQNIDVTNSENALIIKMNDYGDLQINILFTSRQMIIETFICPVSSISNPDEFNTFLLRNQKMMPLSSVGISSVQQEEYYIVFGALSLKSSLEDILLEITSLVDNALDLAEITEEYSHLEHHHHHH,soluble
10,MTYCLAIKVDQGLVFASDSRTHAGVDYASVYSKMYRFDLHSDRLMIVLAAGNLATTQAVINLIRRDLENPGALYNLNTVAYLYDAASYIGETSVRVQEQHASAMQRCGISGEASFILGGQIQGQPPEIYLIYPQGNYITVSPDNPYLQIGETKYGKPILDRMIAPATTLEDAARCALVSIDSTMRSNISVGPPVEVAIYRRNSFVVGHYLHLDYSSPLYALIQKQWAEGIRNAFTLLPRFEWEDGGSIGSEQSQLEHHHHHH,not soluble
11,MVAAGDINVRVTSMDSELEFAIQSSTTGKQLFDQVVKTIGLREIWYFGLQYTDNKGFPTWLKLNKKVLSQDVKKDPTLVFKFRAKFYPEDVAEEIIQDVTMRLFYLQVKDGILSDEIYCPPETSVLLASYAMQAKYGDYVPETHVAGCLTADRLLPQRVLGQFKLNSEEWERRIMTWWADHRATTREQAMLEYLKIAQDLEMYGVNYFEIRNKKGTDLYLGVDALGLNIYDKADRLSPKVGFPWSEIRNISFNDKKFVIKPIDKKAHDFVFYAPRLRINKRILALCMGNHELYMRRRKPDTIEVQQMKQQAREDRALKIAEQEKLTREMSAREEAEQRQRDAEKRMAQMQEDMERARLELAEAHNTIHSLEAQLKQLQLAKQALEQKEYELRELTAQLQSEKAMSDGERRHLRDQVDAREREVFSMREEVERQTTVTRQLQTQIHSQQHTQHYSNSHHVSNGHAHDETATDDEDNGATELTNDADQNVPQHELERVTAAEKNIQIKNKLDMLTRELDSVKDQNAVTDYDVLHMENKKAGRDKYKTLRQIRGGNTKRRIDQYENM,not soluble
12,MVADRFSHVRGWVFDLDNTLYPPSARLFDQIERRMTDWVMTELRVVREEADRLRRHYWSTYGTTLAGLMAEHGVDPAPYLSHVHDISLDHLERDMILAARIRALPGRKIVYTNGCAPYAERVLEARGLANLFDAVYGVEHAGFRPKPDRAAFETVFAADRLAPGTAAMFEDDSRNLLAPHEMGMRTVHVAPEALPAPHIHHHTLDLSEFLALLQP,not soluble
13,MVADSQPGHIDQIKQTNAGAVYRLIDQLGPVSRIDLSRLAQLAPASITKIVREMLEAHLVQELEIKEAGSRGRPAVGLMVETEAWHYLSIRISRGEIFLALRDLSSKLVVEECLPLPLTEATPLLERIITHVDRFFTRHQQKLERLTSIAITLPGIIDTENGVVHRMPYYEDVKEMPLGDSLERHTGVPVYIQHDISAWTMAEALFGASRGARDVIQVVIDHNVGAGVITDGHLLHAGSSSLVEIGHTQVDPYGKRCYCGNHGCLETIASVDSVLELTQLRLNQSMSSMLHGQPLTVDSLCQAAMQGDLLAKDIISGVGAHVGRILAIMVNLFNPQKILIGSPLSKAADILFPAIADSIRQQALPAYSRNTVVESTQFTNQGTMAGAALVKDAMYNGSLLIRLLQG,not soluble
14,MVAIIFDMDGVLYRGNRAIPGVRELIEFLKERGIPFAFLTNNSTKTPEMYREKLLKMGIDVSSSIIITSGLATRLYMSKHLDPGKIFVIGGEGLVKEMQALGWGIVTLDEARQGSWKEVKHVVVGLDPDLTYEKLKYATLAIRNGATFIGTNPDATLPGEEGIYPGAGSIIAALKVATNVEPIIIGKPNEPMYEVVREMFPGEELWMVGDRLDTDIAFAKKFGMKAIMVLTGVSSLEDIKKSEYKPDLVLPSVYELIDYLKTL,soluble
15,MVAQSKILLYYKFTPIADPKAMMLWQRDMCELLGLKGRILISEHGINGTVGGDMDACKRYVRKMREYPGFRGTEFKWSDGGAEDFPKLSVKVRDEIVAFGAPGELKVDEKGVIGGGVHLKPEEVNKLVEERGDDVVFFDGRNAMEAQIGKFKNAVVPDVRTTHDFIRELESGKYDWMKDKPVVSYCTGGIRCEILSSLMKNRGFKEIYQIDGGIVRYGEKYGNDGLWEGSLYVFDRRMHMEFGNGVQDPGFIQLGHCVQCGAPTNKFEHCINEDECRELVLMCPDCYENPATRNCGREHCKEVAAEAAAAAAVLEHHHHHH,soluble
16,MVATEKKFTLRHIFKNVSQLEDGKYLYSPDEDHFNVDWNMSISHKKEKLGVYFYCYKSEESASAWSIDTEYDLALKNSSGKRISIDFKYKFSTSTGFGTAELVSWDAMIKDYLIDDVIIMEATVKIINLMGIPKKTLRTFDESNEEFSDVILTVEDEKFYVLKQFLASHSSHFKTLFLRKCEEEAEKSEYTLQDINSIDFQNLLEVLHGEPAIDEETVQGIRDLADKYDMPFPTRKCEEFLIDLSEKSIKEKLKIAKQFQLEKLKMHCLSKIETVDHIKAAMTGDPIEMDLSVLAALLGKSLALH,not soluble
17,MVDIEIWLRLMSISSLYGDDMVRIAHWLAKQSHIDAVVLQQTGLTLRQAQRFLSFPRKSIESSLCWLEQPNHHLIPADSEFYPPQLQATTDYPGALFVEGELHALHSFQLAVVGSRAHSWYGERWGRLFCETLATCGVTITSGLARGIDGVVHKAALQVNGVSIAVLGNGLNTIHPRRHARLAASLFEQGGALVSEFPLDVPPLAYNFPRRNRIISGLSKGVLVVEAALRSGSLVTARCALEQGREVFALPGPIGNPGSEGPHWLIKQGAILVTEPEEILENLQFGLHWLPDAPENSFYSPDQQDVALPFPELLANVGDEVTPVDVVAERAGQPVPEVVTQLLELELAGWIAAVPGGYVRLRRACHVRRTNVFV,not soluble
18,MVDNVLAILRMGDELADLAVDLFDGVTDPTGIAPATTRIVARAEELLSARGNGRDDIRIACGPGCMTCCTVNVSVLVPEAWTIAVWLRQHHDAGEVDRLAVRLTAAARAIRWLDDADRIRSGVTCPFLDERGWCSIHPVRPLMCRALTSTDPAQCRRALESRTSDEEVPLECNLLQKYLMEQAYRSLAAALERRGIDSAGRELVGTVARFLNEPWLADKFLVGRLITLPESLEHHHHHH,not soluble
19,MVDQGILRLRQKDASLEFGPPRRRTTVVNWYQERHGTRLTKPEWPLAFVCRNPGTCLQIELVTVMII,not soluble
